How the values were obtained:
[1] = molecular target: MLL transactivation domain (Homo sapiens) (UniProt Q03164); conditions: cited from earlier work
[2] = molecular target: KIX domain (residues 586-672) of mouse CBP, wild type (mouse) (UniProt P45481); assay: NMR titration
[3] = molecular target: KIX domain (residues 586-672) of mouse CBP, L628A (mouse) (UniProt P45481); assay: NMR titration
[4] = molecular target: KIX domain (residues 586-672) of mouse CBP, wild type (mouse) (UniProt P45481); assay: ITC

Kd2 (secondary site, two-site model) [2] [µM] | percent of KIX in the MLL-bound form (1:1 KIX:MLL) [2] [%] | Kd1 (primary site, two-site model) [3] [µM] | Kd2 (secondary site, two-site model) [3] [mM] | percent of KIX in the MLL-bound form (1:2 KIX:MLL) [3] [%] | Kd [4] [nM] | Substance | Kd [1] [nM]
 |  |  |  |  |  | CBP KIX (from UniProt P45481) | 2800
920 | 94 | 220 | 1.63 | 74 | 2100 | Human MLL transactivation domain (2842-2469 as printed) (domain or fragment) | 

Source: paper PMC2993637
